Starred links: 1 amine or outer side, 2 acyl side, 3 side chain; linkers in the order of their positions; H or OH if unused. Non-standard residues stand in square brackets, D forms with d. *: point of attachment. C20 diacid = O=C(O)CCCCCCCCCCCCCCCCCCC(=O)*; γGlu = O=C(O)[C@H](CCC(=O)[*:2])N[*:1]; Hyp = O=C(O)[C@@H]1C[C@@H](O)CN1; AEEA = NCCOCCOCC(=O)O
T1: human amylin receptor (AMY3) on CHO-K1/Ga15/AMY3 amylin receptor/CRE-luc cells (human, UniProt P30988 25-474; O60896 24-148)
T1 sequence (looked up) 1: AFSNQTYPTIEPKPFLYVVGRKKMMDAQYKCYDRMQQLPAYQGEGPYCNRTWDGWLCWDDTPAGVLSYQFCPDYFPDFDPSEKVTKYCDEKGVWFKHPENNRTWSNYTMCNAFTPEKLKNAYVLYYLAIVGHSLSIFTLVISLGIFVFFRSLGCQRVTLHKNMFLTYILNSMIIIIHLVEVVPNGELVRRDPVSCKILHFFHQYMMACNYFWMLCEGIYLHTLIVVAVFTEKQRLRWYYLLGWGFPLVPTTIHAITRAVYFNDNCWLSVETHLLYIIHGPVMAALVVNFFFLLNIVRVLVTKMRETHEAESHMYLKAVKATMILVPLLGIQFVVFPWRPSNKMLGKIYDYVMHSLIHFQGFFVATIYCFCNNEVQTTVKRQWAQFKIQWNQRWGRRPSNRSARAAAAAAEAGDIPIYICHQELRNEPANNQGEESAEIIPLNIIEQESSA
T1 sequence (looked up) 2: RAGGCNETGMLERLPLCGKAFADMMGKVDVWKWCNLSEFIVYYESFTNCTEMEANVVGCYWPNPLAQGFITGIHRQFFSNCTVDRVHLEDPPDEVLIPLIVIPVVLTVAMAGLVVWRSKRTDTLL


molecular target: T1, human amylin receptor (AMY3) on …; assay: cell-based or functional assay

Row | EC50/nM, CRE-luciferase reporter in amylin receptor/CRE-luc CHO cells [nM] | Relative activity (the EC50 ratio of Cagrilintide to the compound) [%] | Binder
1 | 0.05 | 180 | {C20 diacid-γGlu}-ASQLSTAATQRLADFLRHSSSSLKPILPPTNVGSNT[Hyp]-NH2 (SMILES CC[C@H](C)[C@H](NC(=O)[C@@H]1CCCN1C(=O)[C@H](CCCCN)NC(=O)[C@H](CC(C)C)NC(=O)[C@H](CO)NC(=O)[C@H](CO)NC(=O)[C@H](CO)NC(=O)[C@H](CO)NC(=O)[C@H](Cc1c[nH]cn1)NC(=O)[C@H](CCCNC(=N)N)NC(=O)[C@H](CC(C)C)NC(=O)[C@H](Cc1ccccc1)NC(=O)[C@H](CC(=O)O)NC(=O)[C@H](C)NC(=O)[C@H](CC(C)C)NC(=O)[C@H](CCCNC(=N)N)NC(=O)[C@H](CCC(N)=O)NC(=O)[C@@H](NC(=O)[C@H](C)NC(=O)[C@H](C)NC(=O)[C@@H](NC(=O)[C@H](CO)NC(=O)[C@H](CC(C)C)NC(=O)[C@H](CCC(N)=O)NC(=O)[C@H](CO)NC(=O)[C@H](C)NC(=O)CC[C@H](NC(=O)CCCCCCCCCCCCCCCCCCC(=O)O)C(=O)O)[C@@H](C)O)[C@@H](C)O)C(=O)N[C@@H](CC(C)C)C(=O)N1CCC[C@H]1C(=O)N1CCC[C@H]1C(=O)N[C@H](C(=O)N[C@@H](CC(N)=O)C(=O)N[C@H](C(=O)NCC(=O)N[C@@H](CO)C(=O)N[C@@H](CC(N)=O)C(=O)N[C@H](C(=O)N1C[C@H](O)C[C@H]1C(N)=O)[C@@H](C)O)C(C)C)[C@@H](C)O) [polypeptide derivative M43]
2 | 0.081 | 32 | {C20 diacid-γGlu}-ASELSTAALGRLADFLRHFTDRDRDILPPTNVGSNTP-NH2 (SMILES CC[C@H](C)[C@H](NC(=O)[C@H](CC(=O)O)NC(=O)[C@H](CCCNC(=N)N)NC(=O)[C@H](CC(=O)O)NC(=O)[C@H](CCCNC(=N)N)NC(=O)[C@H](CC(=O)O)NC(=O)[C@@H](NC(=O)[C@H](Cc1ccccc1)NC(=O)[C@H](Cc1c[nH]cn1)NC(=O)[C@H](CCCNC(=N)N)NC(=O)[C@H](CC(C)C)NC(=O)[C@H](Cc1ccccc1)NC(=O)[C@H](CC(=O)O)NC(=O)[C@H](C)NC(=O)[C@H](CC(C)C)NC(=O)[C@H](CCCNC(=N)N)NC(=O)CNC(=O)[C@H](CC(C)C)NC(=O)[C@H](C)NC(=O)[C@H](C)NC(=O)[C@@H](NC(=O)[C@H](CO)NC(=O)[C@H](CC(C)C)NC(=O)[C@H](CCC(=O)O)NC(=O)[C@H](CO)NC(=O)[C@H](C)NC(=O)CC[C@H](NC(=O)CCCCCCCCCCCCCCCCCCC(=O)O)C(=O)O)[C@@H](C)O)[C@@H](C)O)C(=O)N[C@@H](CC(C)C)C(=O)N1CCC[C@H]1C(=O)N1CCC[C@H]1C(=O)N[C@H](C(=O)N[C@@H](CC(N)=O)C(=O)N[C@H](C(=O)NCC(=O)N[C@@H](CO)C(=O)N[C@@H](CC(N)=O)C(=O)N[C@H](C(=O)N1CCC[C@H]1C(N)=O)[C@@H](C)O)C(C)C)[C@@H](C)O) [polypeptide derivative M3]
3 | 0.28 | 32 | {C20 diacid-γGlu}-ASQLSTAATQRLADFLRHSSEELKPILPPTNVGSNT[Hyp]-NH2 (SMILES CC[C@H](C)[C@H](NC(=O)[C@@H]1CCCN1C(=O)[C@H](CCCCN)NC(=O)[C@H](CC(C)C)NC(=O)[C@H](CCC(=O)O)NC(=O)[C@H](CCC(=O)O)NC(=O)[C@H](CO)NC(=O)[C@H](CO)NC(=O)[C@H](Cc1c[nH]cn1)NC(=O)[C@H](CCCNC(=N)N)NC(=O)[C@H](CC(C)C)NC(=O)[C@H](Cc1ccccc1)NC(=O)[C@H](CC(=O)O)NC(=O)[C@H](C)NC(=O)[C@H](CC(C)C)NC(=O)[C@H](CCCNC(=N)N)NC(=O)[C@H](CCC(N)=O)NC(=O)[C@@H](NC(=O)[C@H](C)NC(=O)[C@H](C)NC(=O)[C@@H](NC(=O)[C@H](CO)NC(=O)[C@H](CC(C)C)NC(=O)[C@H](CCC(N)=O)NC(=O)[C@H](CO)NC(=O)[C@H](C)NC(=O)CC[C@H](NC(=O)CCCCCCCCCCCCCCCCCCC(=O)O)C(=O)O)[C@@H](C)O)[C@@H](C)O)C(=O)N[C@@H](CC(C)C)C(=O)N1CCC[C@H]1C(=O)N1CCC[C@H]1C(=O)N[C@H](C(=O)N[C@@H](CC(N)=O)C(=O)N[C@H](C(=O)NCC(=O)N[C@@H](CO)C(=O)N[C@@H](CC(N)=O)C(=O)N[C@H](C(=O)N1C[C@H](O)C[C@H]1C(N)=O)[C@@H](C)O)C(C)C)[C@@H](C)O) [polypeptide derivative M42]
4 | 0.08 | 113 | {C20 diacid-γGlu}-ASQLSTAATQRLADFLRHSSQQLKPILPPTNVGSNT[Hyp]-NH2 (SMILES CC[C@H](C)[C@H](NC(=O)[C@@H]1CCCN1C(=O)[C@H](CCCCN)NC(=O)[C@H](CC(C)C)NC(=O)[C@H](CCC(N)=O)NC(=O)[C@H](CCC(N)=O)NC(=O)[C@H](CO)NC(=O)[C@H](CO)NC(=O)[C@H](Cc1c[nH]cn1)NC(=O)[C@H](CCCNC(=N)N)NC(=O)[C@H](CC(C)C)NC(=O)[C@H](Cc1ccccc1)NC(=O)[C@H](CC(=O)O)NC(=O)[C@H](C)NC(=O)[C@H](CC(C)C)NC(=O)[C@H](CCCNC(=N)N)NC(=O)[C@H](CCC(N)=O)NC(=O)[C@@H](NC(=O)[C@H](C)NC(=O)[C@H](C)NC(=O)[C@@H](NC(=O)[C@H](CO)NC(=O)[C@H](CC(C)C)NC(=O)[C@H](CCC(N)=O)NC(=O)[C@H](CO)NC(=O)[C@H](C)NC(=O)CC[C@H](NC(=O)CCCCCCCCCCCCCCCCCCC(=O)O)C(=O)O)[C@@H](C)O)[C@@H](C)O)C(=O)N[C@@H](CC(C)C)C(=O)N1CCC[C@H]1C(=O)N1CCC[C@H]1C(=O)N[C@H](C(=O)N[C@@H](CC(N)=O)C(=O)N[C@H](C(=O)NCC(=O)N[C@@H](CO)C(=O)N[C@@H](CC(N)=O)C(=O)N[C@H](C(=O)N1C[C@H](O)C[C@H]1C(N)=O)[C@@H](C)O)C(C)C)[C@@H](C)O) [polypeptide derivative M41]
5 | 0.124 | 25 | {C20 diacid-γGlu-AEEA-AEEA-AEEA-AEEA-AEEA-AEEA}-ASQLSTAATQRLADFLRHFTDRDRDILPPTNVGSNTP-NH2 (SMILES CC[C@H](C)[C@H](NC(=O)[C@H](CC(=O)O)NC(=O)[C@H](CCCNC(=N)N)NC(=O)[C@H](CC(=O)O)NC(=O)[C@H](CCCNC(=N)N)NC(=O)[C@H](CC(=O)O)NC(=O)[C@@H](NC(=O)[C@H](Cc1ccccc1)NC(=O)[C@H](Cc1c[nH]cn1)NC(=O)[C@H](CCCNC(=N)N)NC(=O)[C@H](CC(C)C)NC(=O)[C@H](Cc1ccccc1)NC(=O)[C@H](CC(=O)O)NC(=O)[C@H](C)NC(=O)[C@H](CC(C)C)NC(=O)[C@H](CCCNC(=N)N)NC(=O)[C@H](CCC(N)=O)NC(=O)[C@@H](NC(=O)[C@H](C)NC(=O)[C@H](C)NC(=O)[C@@H](NC(=O)[C@H](CO)NC(=O)[C@H](CC(C)C)NC(=O)[C@H](CCC(N)=O)NC(=O)[C@H](CO)NC(=O)[C@H](C)NC(=O)COCCOCCNC(=O)COCCOCCNC(=O)COCCOCCNC(=O)COCCOCCNC(=O)COCCOCCNC(=O)COCCOCCNC(=O)CC[C@H](NC(=O)CCCCCCCCCCCCCCCCCCC(=O)O)C(=O)O)[C@@H](C)O)[C@@H](C)O)[C@@H](C)O)C(=O)N[C@@H](CC(C)C)C(=O)N1CCC[C@H]1C(=O)N1CCC[C@H]1C(=O)N[C@H](C(=O)N[C@@H](CC(N)=O)C(=O)N[C@H](C(=O)NCC(=O)N[C@@H](CO)C(=O)N[C@@H](CC(N)=O)C(=O)N[C@H](C(=O)N1CCC[C@H]1C(N)=O)[C@@H](C)O)C(C)C)[C@@H](C)O) [polypeptide derivative M25]
6 | 0.081 | 32 | {C20 diacid-γGlu}-ASQLSTAVLGRLADFLRHFTDRDRDILPPTNVGSNTP-NH2 (SMILES CC[C@H](C)[C@H](NC(=O)[C@H](CC(=O)O)NC(=O)[C@H](CCCNC(=N)N)NC(=O)[C@H](CC(=O)O)NC(=O)[C@H](CCCNC(=N)N)NC(=O)[C@H](CC(=O)O)NC(=O)[C@@H](NC(=O)[C@H](Cc1ccccc1)NC(=O)[C@H](Cc1c[nH]cn1)NC(=O)[C@H](CCCNC(=N)N)NC(=O)[C@H](CC(C)C)NC(=O)[C@H](Cc1ccccc1)NC(=O)[C@H](CC(=O)O)NC(=O)[C@H](C)NC(=O)[C@H](CC(C)C)NC(=O)[C@H](CCCNC(=N)N)NC(=O)CNC(=O)[C@H](CC(C)C)NC(=O)[C@@H](NC(=O)[C@H](C)NC(=O)[C@@H](NC(=O)[C@H](CO)NC(=O)[C@H](CC(C)C)NC(=O)[C@H](CCC(N)=O)NC(=O)[C@H](CO)NC(=O)[C@H](C)NC(=O)CC[C@H](NC(=O)CCCCCCCCCCCCCCCCCCC(=O)O)C(=O)O)[C@@H](C)O)C(C)C)[C@@H](C)O)C(=O)N[C@@H](CC(C)C)C(=O)N1CCC[C@H]1C(=O)N1CCC[C@H]1C(=O)N[C@H](C(=O)N[C@@H](CC(N)=O)C(=O)N[C@H](C(=O)NCC(=O)N[C@@H](CO)C(=O)N[C@@H](CC(N)=O)C(=O)N[C@H](C(=O)N1CCC[C@H]1C(N)=O)[C@@H](C)O)C(C)C)[C@@H](C)O) [polypeptide derivative M4]
